From paper PMC4691288

Target: WXyn43, GH43 β-xylosidase from Weissella sp. strain 92 (full-length enzyme) (Weissella sp. strain 92)
Test: SEC

- stoichiometry N: 4
Substance: WXyn43, GH43 β-xylosidase from Weissella sp. strain 92 (full-length enzyme)
